Earlier results, collected in article PMC3930863.

Key:
[1] = molecular target: N-WASP (Homo sapiens); experiment: isothermal titration calorimetry
[2] = molecular target: InlC (Listeria monocytogenes) (UniProt P71451); experiment: isothermal titration calorimetry
Chain of UniProt P71451 (P71451 35-297): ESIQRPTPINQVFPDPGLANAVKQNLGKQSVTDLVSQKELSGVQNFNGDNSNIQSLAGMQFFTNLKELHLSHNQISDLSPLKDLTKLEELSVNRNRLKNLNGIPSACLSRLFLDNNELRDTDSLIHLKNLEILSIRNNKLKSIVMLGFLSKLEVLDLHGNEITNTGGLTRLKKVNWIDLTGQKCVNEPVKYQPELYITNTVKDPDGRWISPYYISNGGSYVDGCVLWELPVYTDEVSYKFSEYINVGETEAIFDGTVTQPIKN

For Tuba SH3-6 (from UniProt Q6XZF7), the Kd [1] is listed as 46.5 µM and the Kd [2] is listed as 5.4 µM.
